Laboratory results taken from patent publication US20250257133A1 (ADAGENE PTE, published 2025).
Numbering of substitutions follows the chain as printed. In names and notes the source's numbering stands.

B1: TY24881 (antibody, human IgG4 S228P, kappa, V domains shown)
VH: QVQLVQSGAEVKKPGSSVKVSCKASGFSLSTGGVGVTWIRQAPGQGLEWIGSIYHSGSTYYSPSLKSRVTITADKSTSTAYMELSSLRSEDTAVYYCARYDYGYYSFDVWGQGTLVTVSS
VL: DIQLTQSPSSLSASVGDRVTITCRASQSVDFDAFSFLAWYQQKPGKAPKLLIYAASTLQSGVPSRFSGSGSGTDFTLTISSLQPEDFATYYCQQSYSASTFGQGTKVEIKR
notes: hIgG4/S241P
B2: TY24864 (antibody, human IgG4 S228P, kappa, V domains shown)
VH: EVQLVESGGGLVQPGGSLRLSCAASGFSLSTSGVGVSWIRQAPGKGLEWIGAIYHSGSTYYSPSLKSRVTISRDNSKNTLYLQLNSLRAEDTAVYYCARYGYSYYAFDYWGQGTLVTVSS
VL: DIQLTQSPSSLSASVGDRVTITCRASQTIGSFLNWYQQKPGKAPKLLIYDASSLESGVPSRFSGSGSGTDFTLTISSLQPEDFATYYCQQSYSYQTFGQGTKVEIKR
notes: hIgG4/S241P
B3: TY24854 (antibody, human IgG4 S228P, kappa, V domains shown)
VH: EVQLVESGGGLVQPGGSLRLSCAASGYSITSGYHWGWIRQAPGKGLEWIGEIYHSGSTYYSPSLKSRVTISRDNSKNTLYLQLNSLRAEDTAVYYCARRRGDGYFDFWGQGTLVTVSS
VL: DIQLTQSPSSLSASVGDRVTITCRASQSVDFLGISFLHWYQQKPGKAPKLLIYDASNRATGIPSRFSGSGSGTDFTLTISSLQPEDFATYYCQQSYRTPLTFGQGTKVEIKR
notes: hIgG4/S241P
B4: TY24871 (antibody, human IgG4 S228P, kappa, V domains shown)
VH: QVQLVQSGAEVKKPGSSVKVSCKASGFTFSSYAIHWVRQAPGQGLEWIGSIYHSGSTYYSPSLKSRVTITADKSTSTAYMELSSLRSEDTAVYYCARDVYGSYALDVWGQGTLVTVSS
VL: B3 VL with L32D, N57S, R58L, A59E, T60S, I62V, T98S, L100I
notes: hIgG4/S241P
B5: TY27566 (bispecific antibody, human IgG1, kappa, N297A)
light: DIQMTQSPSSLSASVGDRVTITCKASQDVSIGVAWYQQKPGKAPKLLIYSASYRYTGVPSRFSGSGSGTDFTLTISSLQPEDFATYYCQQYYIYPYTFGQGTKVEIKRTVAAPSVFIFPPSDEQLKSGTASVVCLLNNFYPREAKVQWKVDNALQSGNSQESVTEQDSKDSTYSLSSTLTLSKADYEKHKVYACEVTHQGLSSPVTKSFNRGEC
heavy: EVQLVESGGGLVQPGGSLRLSCAASGFTFTDYTMDWVRQAPGKGLEWVADVNPNSGGSIYNQRFKGRFTLSVDRSKNTLYLQMNSLRAEDTAVYYCARNLGPSFYFDYWGQGTLVTVSSASTKGPSVFPLAPSSKSTSGGTAALGCLVKDYFPEPVTVSWNSGALTSGVHTFPAVLQSSGLYSLSSVVTVPSSSLGTQTYICNVNHKPSNTKVDKKVEPKSCDKTHTCPPCPAPELLGGPSVFLFPPKPKDTLMISRTPEVTCVVVDVSHEDPEVKFNWYVDGVEVHNAKTKPREEQYASTYRVVSVLTVLHQDWLNGKEYKCKVSNKALPAPIEKTISKAKGQPREPQVYTLPPSRKKLTKNQVKLTCLVKGFYPSDIAVEWESNGQPENNYKTTPPVLDCDGSFFLYSKLTVDKSRWQQGNVFSCSVMHEALHNHYTQKSLSLSPGK
chain: DIQLTQSPSSLSASVGDRVTITCRASQSVDFHGISFLHWYQQKPGKAPKLLIYAASSLQSGVPSRFSGSGSGTDFTLTISSLQPEDFATYYCQQSYRSPRTFGQGTKVEIKGGGGSGGGGSGGGGSGGGGSEVQLVESGGGLVQPGGSLRLSCAASGFSLSTGGVGVSWIRQAPGKGLEWIGEIYHSGSTYYSPSLKSRVTISRDNSKNTLYLQLNSLRAEDTAVYYCARYEYYYYDFDYWGQGTLVTVSSEPKSSDKTHTCPPCPAPELLGGPSVFLFPPKPKDTLMISRTPEVTCVVVDVSHEDPEVKFNWYVDGVEVHNAKTKPREEQYASTYRVVSVLTVLHQDWLNGKEYKCKVSNKALPAPIEKTISKAKGQPREPQVYTDPPSRDELTKNQVSLTCLVDGFYPSDIAVEWESNGQPENCYKTTPPVLDSDGSFFLYSKLTVDKSRWQQGNVFSCSVMHEALHNHYTQDSLSLSPGK
notes: also called anti-HER2xCD28 BsAb; TY27566 (WT)
B6: TY29109 (bispecific antibody, human IgG1, kappa, N297A)
light: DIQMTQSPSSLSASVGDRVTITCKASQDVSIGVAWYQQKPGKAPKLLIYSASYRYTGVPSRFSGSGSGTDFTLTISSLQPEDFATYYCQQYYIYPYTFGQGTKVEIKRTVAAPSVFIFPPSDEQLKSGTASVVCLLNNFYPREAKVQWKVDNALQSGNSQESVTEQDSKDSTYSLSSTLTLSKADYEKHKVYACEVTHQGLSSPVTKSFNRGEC
heavy: B5 heavy
chain: EVQLVESGGGLVQPGGSLRLSCAASGFSLSTGGVGVSWIRQAPGKGLEWIGEIYHSGSTYYSPSLKSRVTISRDNSKNTLYLQLNSLRAEDTAVYYCARYEYYYYDFDYWGQGTLVTVSSGGGGSGGGGSGGGGSGGGGSDIQLTQSPSSLSASVGDRVTITCRASQSVDFHGISFLHWYQQKPGKAPKLLIYAASSLQSGVPSRFSGSGSGTDFTLTISSLQPEDFATYYCQQSYRSPRTFGQGTKVEIKEPKSSDKTHTCPPCPAPELLGGPSVFLFPPKPKDTLMISRTPEVTCVVVDVSHEDPEVKFNWYVDGVEVHNAKTKPREEQYASTYRVVSVLTVLHQDWLNGKEYKCKVSNKALPAPIEKTISKAKGQPREPQVYTDPPSRDELTKNQVSLTCLVDGFYPSDIAVEWESNGQPENCYKTTPPVLDSDGSFFLYSKLTVDKSRWQQGNVFSCSVMHEALHNHYTQDSLSLSPGK
notes: anti-HER2 Fab x CD28 scFv WT (VH-VL)-Fc; also called TY29109 (WT)
B7: TY28660 (bispecific antibody, human IgG1, kappa, N297A)
light: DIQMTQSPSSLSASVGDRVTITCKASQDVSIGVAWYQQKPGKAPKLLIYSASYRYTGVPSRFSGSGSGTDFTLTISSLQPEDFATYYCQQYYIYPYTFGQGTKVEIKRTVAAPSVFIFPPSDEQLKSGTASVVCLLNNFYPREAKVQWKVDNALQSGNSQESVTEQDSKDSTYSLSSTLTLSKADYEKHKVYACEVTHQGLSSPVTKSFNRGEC
heavy: B5 heavy
chain: B5 chain with I34K, G163S, Y235S, D237A
notes: anti-HER2 Fab x CD28 scFv BC8257 (VL-VH)-Fc
B8: TY29312 (bispecific antibody, human IgG1, kappa, N297A)
light: not shown
heavy: B5 heavy
chain: B6 chain with G32S, S37G, E52S, S62N, Y103D, H172Y, I174K, Q199E, R240L
notes: anti-HER2 Fab x CD28 scFv BC8240 (VH-VL)-Fc
B9: TY29307 (bispecific antibody, human IgG1, kappa, N297A)
light: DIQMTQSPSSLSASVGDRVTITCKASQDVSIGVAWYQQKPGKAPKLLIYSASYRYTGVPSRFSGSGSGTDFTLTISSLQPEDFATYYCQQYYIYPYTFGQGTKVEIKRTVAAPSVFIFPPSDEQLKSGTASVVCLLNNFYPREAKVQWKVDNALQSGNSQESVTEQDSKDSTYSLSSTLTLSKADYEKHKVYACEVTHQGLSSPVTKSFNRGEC
heavy: B5 heavy
chain: B6 chain with E52S, S62N, Y103G, D106A, F107L, H172Y, S238T, R240P
notes: anti-HER2 Fab x CD28 scFv BC8228 (VH-VL)-Fc
B10: TY29310 (bispecific antibody, human IgG1, kappa, N297A)
light: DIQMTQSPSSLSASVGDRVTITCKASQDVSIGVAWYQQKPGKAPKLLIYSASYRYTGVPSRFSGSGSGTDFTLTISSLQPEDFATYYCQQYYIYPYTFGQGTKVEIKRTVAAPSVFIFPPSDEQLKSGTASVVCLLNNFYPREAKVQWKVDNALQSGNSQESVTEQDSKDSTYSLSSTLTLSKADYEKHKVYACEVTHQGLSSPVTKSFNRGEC
heavy: B5 heavy
chain: B6 chain with G32S, S37G, Y60N, S62N, Y103G, D106A, F107L, H172Y, I174K, S238T
notes: anti-HER2 Fab x CD28 scFv BC8235 (VH-VL)-Fc
B11: TY28659 (bispecific antibody, human IgG1, kappa, N297A)
light: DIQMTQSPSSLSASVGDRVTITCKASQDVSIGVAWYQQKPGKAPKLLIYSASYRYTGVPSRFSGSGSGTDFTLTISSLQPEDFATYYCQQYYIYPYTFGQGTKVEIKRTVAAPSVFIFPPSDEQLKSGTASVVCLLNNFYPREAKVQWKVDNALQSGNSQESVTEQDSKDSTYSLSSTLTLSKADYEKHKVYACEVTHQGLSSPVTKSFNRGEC
heavy: B5 heavy
chain: B5 chain with G163S, S193N, Y234G, D237A
notes: anti-HER2 Fab x CD28 scFv BC8242 (VL-VH)-Fc
B12: TY29309 (bispecific antibody, human IgG1, kappa, N297A)
light: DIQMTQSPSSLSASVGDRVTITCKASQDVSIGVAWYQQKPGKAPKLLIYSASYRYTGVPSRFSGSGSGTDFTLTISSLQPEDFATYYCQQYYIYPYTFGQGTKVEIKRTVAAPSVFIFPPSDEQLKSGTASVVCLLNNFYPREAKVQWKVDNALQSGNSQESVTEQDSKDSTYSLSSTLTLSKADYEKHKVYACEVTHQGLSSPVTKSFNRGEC
heavy: B5 heavy
chain: B6 chain with G32S, E52S, S62N, Y103D, D106A, H172Y, S238T
notes: anti-HER2 Fab x CD28 scFv BC8233 (VH-VL)-Fc
B13: TY28657 (bispecific antibody, human IgG1, kappa, N297A)
light: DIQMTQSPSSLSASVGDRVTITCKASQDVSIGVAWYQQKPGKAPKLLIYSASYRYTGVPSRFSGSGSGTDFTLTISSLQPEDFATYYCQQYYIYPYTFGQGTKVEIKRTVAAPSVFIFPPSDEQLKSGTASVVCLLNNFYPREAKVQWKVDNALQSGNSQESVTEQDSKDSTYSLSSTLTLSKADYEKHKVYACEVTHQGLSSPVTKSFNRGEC
heavy: B5 heavy
chain: B5 chain with Q59E, S98T, S168G, S193N, Y234G, D237A
notes: anti-HER2 Fab x CD28 scFv BC8237 (VL-VH)-Fc
B14: TY28658 (bispecific antibody, human IgG1, kappa, N297A)
light: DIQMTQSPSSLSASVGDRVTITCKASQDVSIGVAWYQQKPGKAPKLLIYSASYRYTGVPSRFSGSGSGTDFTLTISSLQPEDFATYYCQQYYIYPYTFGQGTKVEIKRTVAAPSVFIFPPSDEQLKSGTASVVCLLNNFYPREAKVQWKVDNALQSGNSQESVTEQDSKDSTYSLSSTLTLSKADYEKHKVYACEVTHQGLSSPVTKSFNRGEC
heavy: B5 heavy
chain: B5 chain with H32Y, I34K, Q59E, R100L, G163S, S168G, E183S, S193N, Y234D
notes: anti-HER2 Fab x CD28 scFv BC8240 (VL-VH)-Fc
B15: TY28653 (bispecific antibody, human IgG1, kappa, N297A)
light: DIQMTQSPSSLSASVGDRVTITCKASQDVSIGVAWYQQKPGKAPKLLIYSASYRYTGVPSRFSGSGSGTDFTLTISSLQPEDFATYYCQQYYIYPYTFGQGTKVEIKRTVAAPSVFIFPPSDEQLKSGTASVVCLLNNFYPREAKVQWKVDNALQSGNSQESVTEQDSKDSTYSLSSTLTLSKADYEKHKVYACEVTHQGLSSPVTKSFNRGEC
heavy: B5 heavy
chain: B5 chain with H32Y, S98T, R100P, E183S, S193N, Y234G, D237A, F238L
notes: anti-HER2 Fab x CD28 scFv BC8228 (VL-VH)-Fc
B16: TY28661 (bispecific antibody, human IgG1, kappa, N297A)
light: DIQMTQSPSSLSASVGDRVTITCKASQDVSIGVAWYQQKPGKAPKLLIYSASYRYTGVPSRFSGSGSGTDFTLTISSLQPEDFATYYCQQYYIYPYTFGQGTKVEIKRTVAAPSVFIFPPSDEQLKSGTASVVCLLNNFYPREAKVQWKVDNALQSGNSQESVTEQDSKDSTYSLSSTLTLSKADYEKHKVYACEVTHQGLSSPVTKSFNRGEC
heavy: B5 heavy
chain: B5 chain with H32Y, Q59E, S98T, R100L, E183S, Y234D, D237A
notes: anti-HER2 Fab x CD28 scFv BC8263 (VL-VH)-Fc
B17: TY28652 (bispecific antibody, human IgG1, kappa, N297A)
light: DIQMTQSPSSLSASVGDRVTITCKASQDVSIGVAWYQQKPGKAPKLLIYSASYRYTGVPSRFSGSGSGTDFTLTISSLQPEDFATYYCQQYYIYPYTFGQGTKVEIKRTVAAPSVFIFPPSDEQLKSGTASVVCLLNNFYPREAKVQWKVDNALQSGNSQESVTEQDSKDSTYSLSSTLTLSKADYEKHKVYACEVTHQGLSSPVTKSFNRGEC
heavy: B5 heavy
chain: B5 chain with H32Y, I34K, Q59E, R100P, E183S, S193N, Y234D, D237A
notes: anti-HER2 Fab x CD28 scFv BC8227 (VL-VH)-Fc
B18: TY29314 (bispecific antibody, human IgG1, kappa, N297A)
light: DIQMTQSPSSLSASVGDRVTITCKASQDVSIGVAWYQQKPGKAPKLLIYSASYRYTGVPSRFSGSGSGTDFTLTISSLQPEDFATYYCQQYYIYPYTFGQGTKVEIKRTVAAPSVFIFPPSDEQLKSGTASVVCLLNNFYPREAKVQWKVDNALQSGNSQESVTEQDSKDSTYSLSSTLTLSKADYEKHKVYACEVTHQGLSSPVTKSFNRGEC
heavy: B5 heavy
chain: B6 chain with G32S, Y104S, D106A, I174K
notes: anti-HER2 Fab x CD28 scFv BC8257 (VH-VL)-Fc
B19: TY29311 (bispecific antibody, human IgG1, kappa, N297A)
light: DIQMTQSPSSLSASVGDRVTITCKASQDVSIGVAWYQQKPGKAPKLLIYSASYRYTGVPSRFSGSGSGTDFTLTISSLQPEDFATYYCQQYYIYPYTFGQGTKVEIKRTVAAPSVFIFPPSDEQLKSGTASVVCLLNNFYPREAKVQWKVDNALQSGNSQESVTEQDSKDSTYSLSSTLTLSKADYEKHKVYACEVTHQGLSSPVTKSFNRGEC
heavy: B5 heavy
chain: B6 chain with S37G, S62N, Y103G, D106A, Q199E, S238T
notes: anti-HER2 Fab x CD28 scFv BC8237 (VH-VL)-Fc
B20: TY29315 (bispecific antibody, human IgG1, kappa, N297A)
light: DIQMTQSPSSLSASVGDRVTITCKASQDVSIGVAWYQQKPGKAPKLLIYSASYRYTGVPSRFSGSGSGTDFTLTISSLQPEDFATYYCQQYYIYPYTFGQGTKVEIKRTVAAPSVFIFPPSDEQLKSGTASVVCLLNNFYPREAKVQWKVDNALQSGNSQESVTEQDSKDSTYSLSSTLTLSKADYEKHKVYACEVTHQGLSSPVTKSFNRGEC
heavy: B5 heavy
chain: B6 chain with E52S, Y103D, D106A, H172Y, Q199E, S238T, R240L
notes: anti-HER2 Fab x CD28 scFv BC8263 (VH-VL)-Fc
B21: TY29306 (bispecific antibody, human IgG1, kappa, N297A)
light: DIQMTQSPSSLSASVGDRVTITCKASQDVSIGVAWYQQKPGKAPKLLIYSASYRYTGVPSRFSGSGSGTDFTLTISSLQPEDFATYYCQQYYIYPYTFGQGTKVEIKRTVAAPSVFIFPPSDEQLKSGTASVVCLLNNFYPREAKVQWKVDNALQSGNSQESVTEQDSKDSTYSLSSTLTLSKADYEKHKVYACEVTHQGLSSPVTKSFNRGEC
heavy: B5 heavy
chain: B6 chain with E52S, S62N, Y103D, D106A, H172Y, I174K, Q199E, R240P
notes: anti-HER2 Fab x CD28 scFv BC8227 (VH-VL)-Fc
B22: TY28654 (bispecific antibody, human IgG1, kappa, N297A)
light: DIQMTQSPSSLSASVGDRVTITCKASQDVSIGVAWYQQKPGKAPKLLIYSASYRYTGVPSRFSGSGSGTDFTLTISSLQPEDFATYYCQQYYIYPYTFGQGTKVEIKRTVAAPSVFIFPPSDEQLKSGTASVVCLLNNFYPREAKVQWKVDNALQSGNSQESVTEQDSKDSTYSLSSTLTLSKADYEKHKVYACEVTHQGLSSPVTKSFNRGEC
heavy: B5 heavy
chain: B5 chain with H32Y, I34K, S98T, R100L, G163S, E183S, S193N, Y234G, D237A
notes: anti-HER2 Fab x CD28 scFv BC8230 (VL-VH)-Fc
B23: TY28655 (bispecific antibody, human IgG1, kappa, N297A)
light: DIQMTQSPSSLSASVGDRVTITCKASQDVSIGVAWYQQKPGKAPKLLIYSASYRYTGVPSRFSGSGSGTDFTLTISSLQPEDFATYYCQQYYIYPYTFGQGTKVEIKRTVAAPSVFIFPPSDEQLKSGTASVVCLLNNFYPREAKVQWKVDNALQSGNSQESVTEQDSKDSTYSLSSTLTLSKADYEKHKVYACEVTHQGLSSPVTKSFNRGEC
heavy: B5 heavy
chain: B5 chain with H32Y, S98T, G163S, E183S, S193N, Y234D, D237A
notes: anti-HER2 Fab x CD28 scFv BC8233 (VL-VH)-Fc
B24: TY29308 (bispecific antibody, human IgG1, kappa, N297A)
light: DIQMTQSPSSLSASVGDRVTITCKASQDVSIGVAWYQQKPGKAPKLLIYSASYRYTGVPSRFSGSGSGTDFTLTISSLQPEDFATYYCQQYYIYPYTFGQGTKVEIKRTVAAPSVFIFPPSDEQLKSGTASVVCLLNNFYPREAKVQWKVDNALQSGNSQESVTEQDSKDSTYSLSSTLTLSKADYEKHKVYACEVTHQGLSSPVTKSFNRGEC
heavy: B5 heavy
chain: B6 chain with G32S, E52S, S62N, Y103G, D106A, H172Y, I174K, S238T, R240L
notes: anti-HER2 Fab x CD28 scFv BC8230 (VH-VL)-Fc
B25: TY28656 (bispecific antibody, human IgG1, kappa, N297A)
light: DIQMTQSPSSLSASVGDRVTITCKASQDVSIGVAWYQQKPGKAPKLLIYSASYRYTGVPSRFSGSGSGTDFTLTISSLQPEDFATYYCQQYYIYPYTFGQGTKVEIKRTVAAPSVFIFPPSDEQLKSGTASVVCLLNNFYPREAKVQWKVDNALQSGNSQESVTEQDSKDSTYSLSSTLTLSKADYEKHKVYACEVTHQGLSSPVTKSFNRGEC
heavy: B5 heavy
chain: B5 chain with H32Y, I34K, S98T, G163S, S168G, Y191N, S193N, Y234G, D237A, F238L
notes: anti-HER2 Fab x CD28 scFv BC8235 (VL-VH)-Fc
B26: TY29313 (bispecific antibody, human IgG1, kappa, N297A)
light: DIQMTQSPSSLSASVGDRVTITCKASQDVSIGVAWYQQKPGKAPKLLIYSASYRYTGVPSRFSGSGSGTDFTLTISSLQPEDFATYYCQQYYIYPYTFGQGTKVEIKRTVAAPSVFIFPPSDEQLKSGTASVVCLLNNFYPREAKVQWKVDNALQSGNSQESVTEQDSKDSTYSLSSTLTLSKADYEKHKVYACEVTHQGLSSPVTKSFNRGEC
heavy: B5 heavy
chain: B6 chain with G32S, S62N, Y103G, D106A
notes: anti-HER2 Fab x CD28 scFv BC8242 (VH-VL)-Fc

target: T1, His-tagged human CD28 protein (human, UniProt P10747 19-152); experiment: Octet BLI, mAb captured;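 further: Anti-human Fc biosensors captured the antibodies, then His-tagged protein analytes at 100 nM associated for 300 s and dissociated for 300 s, fitted by a 1:1 Langmuir model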
T1 construct: not shown: His tag

Kd | koff | kon | Binder
5.25 nM | 0.000662 s⁻¹ | 126000 M⁻¹ s⁻¹ | B1
4.41 nM | 0.000416 s⁻¹ | 94200 M⁻¹ s⁻¹ | B2
5.43 nM | 0.000353 s⁻¹ | 64900 M⁻¹ s⁻¹ | B3
4.99 nM | 0.00035 s⁻¹ | 70100 M⁻¹ s⁻¹ | B4

target: T2, His-tagged human CTLA4 protein (human, UniProt P16410 36-161, limits assumed); experiment: Octet BLI, mAb captured;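 further: Anti-human Fc biosensors captured the antibodies, then His-tagged protein analytes at 100 nM associated for 300 s and dissociated for 300 s, fitted by a 1:1 Langmuir model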
T2 construct: not shown: His tag
T2 sequence (P16410 36-161 limits assumed): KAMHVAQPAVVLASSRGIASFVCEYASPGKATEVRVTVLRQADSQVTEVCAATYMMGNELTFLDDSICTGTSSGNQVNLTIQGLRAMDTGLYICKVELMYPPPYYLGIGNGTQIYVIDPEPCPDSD

Kd | koff | kon | Binder
2.35 nM | 0.00262 s⁻¹ | 1.11e+06 M⁻¹ s⁻¹ | B1
5.5 nM | 0.00284 s⁻¹ | 517000 M⁻¹ s⁻¹ | B2

target: T3, Human CD28 on cells (human, UniProt P10747 19-220); experiment: flow cytometry, Jurkat cells
T3 construct: Jurkat E6-1 cells, primary human T cells, or transfected HEK293F cells; also called CD28 on Jurkat cells; CD28 on human CD3+ T cells

EC50 | Binder
0.38 nM | B1
0.54 nM | B2
0.6 nM | B3
0.89 nM | B4

target: Human CD28 (ELISAs of Examples 4 and 13) (human, UniProt P10747 19-152, limits assumed); experiment: ELISA

EC50 | Binder
3.89 nM | B5
30.3 nM | B6
3.77 nM | B7
624 nM | B8
27.8 nM | B9
349 nM | B10
0.954 nM | B11
27.7 nM | B12
5.29 nM | B13
78 nM | B14
7.3 nM | B15
52.6 nM | B16
3.68 nM | B17
27.5 nM | B18
91.3 nM | B19
291 nM | B20
9.27 nM | B21
68.4 nM | B22
8.14 nM | B23
417 nM | B24
128 nM | B25
6.97 nM | B26
